Measured values reported in the RNAGym collection of RNA variant scans (doi:10.1093/nar/gkz1192).

B1: CPEB3 Ribozyme (parent)
chain: UAACAGGGGGCCACAGCAGAAGCGUUCACGUCGCAGCCCCUGUCAGAUUCUGGUGAAUCUGCGAAUUCUGCUGUAUAUCUC

Variants of: B1
Test: self-cleavage, relative activity (ratio to wild type); higher = more cleavage; in vitro, sequencing
How it was run: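 Libraries of CPEB3 self-cleaving ribozyme mutants came from rounds of error-prone PCR and carried barcodes, which DNA sequencing matched to variants. In vitro transcription used T7 RNA polymerase at 37°C for 5 hours, with a further 15 min in DNase I before EDTA stopped the reaction; the ribozymes cleaved during both steps. The RNA was reverse transcribed with template switching and sequenced on Illumina. Relative activity is the cleaved/total read fraction of a variant divided by that of the unmutated ribozyme, averaged over three batches with at least 5 reads.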

Row | Variant | self-cleavage
1 | U58C U69A | 0.3
2 | U58C U69C | 0.27
3 | G61A G63A | 0.84
4 | C59U U76C | 0.97
5 | U60A G70A | 0.52
6 | C59U U72C | 1.14
7 | C59U U72A | 0.4
8 | C62A U76C | 0.17
9 | C62G U72A | 0.27
10 | C62G U72C | 0.26
11 | C59U A64U | 0.25
12 | U60A C79U | 0.69
13 | U60A C79A | 0.88
14 | C59G U60C | 0.16
15 | U58C U67A | 0.28
16 | U58C U67C | 0.29
17 | U60C U80G | 0.44
18 | U60C U80C | 0.57
19 | U60C U80A | 0.61
20 | C59U G63A | 0.86
21 | U60C C71U | 0.3
22 | U60C C71A | 0.25
23 | G61A U67G | 0.25
24 | G61A U67C | 0.36

Row | Variant | self-cleavage
25 | G61A U67A | 0.43
26 | C59U U78C | 0.94
27 | C59U U78A | 1.17
28 | C62A A77G | 0.24
29 | U58G U78C | 0.34
30 | U58G U78A | 0.4
31 | G61C U78C | 0.33
32 | C59A U69A | 0.18
33 | C59A U69C | 0.23
34 | U60A C81G | 0.93
35 | U60A C81U | 0.76
36 | C59A A64G | 0.2
37 | U58G U60A | 0.18
38 | U58G U60C | 0.3
39 | U60G U78A | 0.36
40 | U60G U78C | 0.17
41 | U58C U76C | 0.67
42 | U58C U76A | 0.68
43 | U58C U76G | 0.69
44 | U58C G61U | 0.21
45 | U60A G63C | 0.75
46 | U60A G63U | 0.53
47 | U60A G63A | 0.61
48 | G61C U74C | 0.23

Row | Variant | self-cleavage
49 | G61C U74A | 0.88
50 | C62A U72G | 0.19
51 | C62A U72A | 0.17
52 | C62A U72C | 0.24
53 | U58G G63A | 0.45
54 | G61A U72C | 0.73
55 | G61A U72A | 0.3
56 | C62U A65G | 0.27
57 | C62U A65U | 0.14
58 | U60A U80C | 0.63
59 | U60A U80A | 0.59
60 | U60A U80G | 0.84
61 | U60A U67A | 0.42
62 | U60A U67C | 0.37
63 | U60A U67G | 0.79
64 | G61A U80C | 0.9
65 | G61A U80G | 1
66 | G61A U80A | 0.91
67 | U60C G70A | 0.48
68 | U60C G70C | 0.27
69 | U60C G70U | 0.44
70 | U60G U67C | 0.13
71 | U60G U67A | 0.26
72 | C62A G63A | 0.25

Row | Variant | self-cleavage
73 | U60A A75U | 0.62
74 | U60A A75G | 0.46
75 | U60G C71U | 0.2
76 | U60C A65G | 0.28
77 | U60C A65U | 0.27
78 | U60C A65C | 0.17
79 | C62G A65U | 0.27
80 | C59A G73U | 1.11
81 | U60A A65G | 0.34
82 | U60A A65U | 0.21
83 | U60G U74C | 0.88
84 | U60G U74A | 0.82
85 | U58G A65G | 0.1
86 | C62A A75G | 0.12
87 | C59A G70U | 0.13
88 | U60A G73A | 1.16
89 | U60A G61U | 0.38
90 | U60A G61C | 0.22
91 | G61C | 0.34
92 | G61U | 0.6
93 | G61A | 0.75
94 | U60A C62U | 0.26
95 | C59U U74C | 1.1
96 | C59U U74A | 1.6

Row | Variant | self-cleavage
97 | U60A U78G | 0.38
98 | U60A U78A | 0.72
99 | U60A U78C | 0.44
100 | U60G U80C | 0.63
101 | U58G U69C | 0.2
102 | C59G A75U | 0.28
103 | C59G U78C | 0.27
104 | G61A U76C | 0.88
105 | U60G U69C | 0.23
106 | U60G U69A | 0.39
107 | G61C A65C | 0.22
108 | G61C A65G | 0.39
109 | C62A U69C | 0.34
110 | C62A U69A | 0.31
111 | C62A U69G | 0.33
112 | U58G U74A | 0.31
113 | U60A U66A | 0.18
114 | U60A U66C | 0.34
115 | C59U A77G | 0.94
116 | U60C U69A | 0.35
117 | U60C U69G | 0.39
118 | U60C U69C | 0.37
119 | G61C G63U | 0.35
120 | U60C A64U | 0.31

Row | Variant | self-cleavage
121 | U60C A64G | 0.36
122 | U60C A64C | 0.61
123 | G61U U67C | 0.21
124 | G61U U67G | 0.23
125 | G61A A77U | 0.98
126 | G61A A77G | 0.8
127 | U58G U66C | 0.27
128 | U58C C62G | 0.27
129 | U58C C62U | 0.22
130 | C59U U67A | 0.28
131 | C59U U67C | 0.21
132 | U60C C81A | 0.37
133 | U60C C81U | 0.74
134 | C59G U66C | 0.19
135 | C59A U76A | 0.43
136 | C59A U76G | 0.33
137 | C62A G73A | 0.24
138 | U60A A77U | 0.52
139 | U60A A77G | 0.56
140 | U60C | 0.54
141 | U60G | 0.48
142 | U60A | 0.57
143 | C62A U80C | 0.34
144 | C62A U80A | 0.1

Row | Variant | self-cleavage
145 | U60G A65G | 0.24
146 | G61A U69C | 0.53
147 | G61A U69A | 0.4
148 | C62G U69C | 0.22
149 | C62G U69A | 0.15
150 | G61A G70U | 0.12
151 | C62U A77G | 0.15
152 | C62U A77C | 0.19
153 | C62U A77U | 0.17
154 | G61C U66A | 0.23
155 | G61C U66C | 0.54
156 | C59A A65U | 0.05
157 | C59A A65G | 0.13
158 | G61C U80C | 0.5
159 | C62A A65U | 0.24
160 | C62A A65G | 0.36
161 | C62G C71U | 0.38
162 | U58C U74C | 0.87
163 | G61U U69A | 0.3
164 | U58C C79U | 0.6
165 | U60C U72C | 0.53
166 | U60C U72G | 0.39
167 | U60C U72A | 0.37
